Patent publication US20220396612A1 (UNIVERSIT DE TOURS, published 2022)

T1: virus-like particles (VLPs) of BK polyomavirus VP-1 protein, serotype Ia (BK virus (BKPyV), serotype Ia, UniProt P03088 1-361)
T1 construct: self-assembled native VLPs coated on ELISA plates; also called VLP Ia; BKV VP-1, serotype Ia
T1 chain: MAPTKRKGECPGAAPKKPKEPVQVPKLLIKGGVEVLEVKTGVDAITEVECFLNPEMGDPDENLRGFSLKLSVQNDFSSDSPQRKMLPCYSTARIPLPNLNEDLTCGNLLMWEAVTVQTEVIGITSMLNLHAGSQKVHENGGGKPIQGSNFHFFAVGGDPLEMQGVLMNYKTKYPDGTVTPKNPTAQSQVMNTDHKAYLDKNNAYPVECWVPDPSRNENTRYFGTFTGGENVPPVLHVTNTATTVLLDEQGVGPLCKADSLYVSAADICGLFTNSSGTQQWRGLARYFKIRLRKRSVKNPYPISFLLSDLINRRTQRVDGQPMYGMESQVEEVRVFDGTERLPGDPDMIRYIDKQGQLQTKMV

T2: virus-like particles (VLPs) of BK polyomavirus VP-1 protein, serotype Ib2 (BK virus (BKPyV), serotype Ib2, PA …, UniProt P03088 1-362)
T2 construct: native VLPs; also the immunogen; also called VLP Ib2; BK Ib2
T2 chain: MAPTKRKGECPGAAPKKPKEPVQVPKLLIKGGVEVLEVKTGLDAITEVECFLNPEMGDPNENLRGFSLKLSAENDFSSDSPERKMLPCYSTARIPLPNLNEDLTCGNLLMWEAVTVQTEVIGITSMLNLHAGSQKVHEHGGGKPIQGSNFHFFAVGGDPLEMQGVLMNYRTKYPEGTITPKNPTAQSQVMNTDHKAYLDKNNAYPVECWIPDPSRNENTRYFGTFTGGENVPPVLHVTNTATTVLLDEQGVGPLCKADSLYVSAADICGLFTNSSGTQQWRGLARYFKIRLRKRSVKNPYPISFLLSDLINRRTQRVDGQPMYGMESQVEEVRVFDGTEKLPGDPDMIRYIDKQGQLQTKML

T3: virus-like particles (VLPs) of BK polyomavirus VP-1 protein, serotype II (BK virus (BKPyV), serotype II, UniProt P14996 1-362)
T3 construct: native VLPs; also called VLP II
T3 chain: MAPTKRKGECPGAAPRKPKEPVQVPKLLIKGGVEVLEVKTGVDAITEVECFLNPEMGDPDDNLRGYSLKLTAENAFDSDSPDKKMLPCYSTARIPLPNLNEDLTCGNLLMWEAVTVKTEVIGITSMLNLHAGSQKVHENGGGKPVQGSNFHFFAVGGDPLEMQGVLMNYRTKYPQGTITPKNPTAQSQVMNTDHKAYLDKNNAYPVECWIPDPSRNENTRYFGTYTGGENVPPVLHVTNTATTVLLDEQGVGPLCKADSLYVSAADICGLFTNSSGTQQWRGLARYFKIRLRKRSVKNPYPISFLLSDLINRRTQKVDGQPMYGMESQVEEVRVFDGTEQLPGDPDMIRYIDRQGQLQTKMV

T4: virus-like particles (VLPs) of BK polyomavirus VP-1 protein, serotype IV (BK virus (BKPyV), serotype IV, UniProt P14996 1-362)
T4 construct: native VLPs; also called VLP IV
T4 chain: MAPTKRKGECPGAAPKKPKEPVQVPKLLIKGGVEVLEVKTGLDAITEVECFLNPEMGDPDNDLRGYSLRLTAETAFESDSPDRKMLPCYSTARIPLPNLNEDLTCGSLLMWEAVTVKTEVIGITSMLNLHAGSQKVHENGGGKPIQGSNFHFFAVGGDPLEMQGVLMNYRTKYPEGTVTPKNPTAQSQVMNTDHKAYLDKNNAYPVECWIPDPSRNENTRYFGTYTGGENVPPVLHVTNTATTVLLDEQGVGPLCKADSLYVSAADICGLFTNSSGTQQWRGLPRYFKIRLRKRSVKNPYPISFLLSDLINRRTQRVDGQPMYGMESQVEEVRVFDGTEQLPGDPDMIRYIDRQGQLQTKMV

B1: monoclonal antibody ‘H6’ secreted by clone BK6A2H6 (antibody, V domains shown)
VH: EVQLQQSGPELVKPGASVKISCKASGYSFTGYFMNWVKQSHGKSLEWIGRINPYNGDTFYNQKFKGKATLTVDKSSSTAHMELLSLTSEDSAVYYCGSYYYGDYFDYWGQGTTLTVSS
VL: SIVMTQIPKFLLVSEGDRVTITCKASQSVSNDVAWYQQKSGQSPKLLIYYASNRYTGVPDRFTGSGYGTDFTFTISTVQAEDLAVYFCQQDYSSPLTFGAGTKLELKR
B2: monoclonal antibody ‘F6’ secreted by clone BK6A2F6 (antibody)
heavy: EVQLQQSGPELVKPGASVKISCKASGYSFTGYFMNWVKQSHGKSLEWIGRINPYNGDTFYNQKFKGKATLTVDKSSSTAHMELLSLTSEDSAVYYCGSYYYGDYFDYWGQGTTLTVSSAKTTPPSVYPLAPGSAAQTNSMVTLGCLVKGYFPEPVTVTWNSGSLSSGVHTFPAVLQSDLYTLSSSVTVPSSTWPSETVTCNVAHPASSTKVDKKIVPRDCGCKPCICTVPEVSSVFIFPPKPKDVLTITLTPKVTCVVVDISKDDPEVQFSWFVDDVEVHTAQTQPREEQFNSTFRSVSELPIMHQDWLNGKEFKCRVNSAAFPAPIEKTISKTKGRPKAPQVYTIPPPKEQMAKDKVSLTCMITDFFPEDITVEWQWNGQPAENYKNTQPIMDTDGSYFVYSKLNVQKSNWEAGNTFTCSVLHEGLHNHHTEKSLSHSPGK
light: […]

Experiments:
[1] = molecular target: T1, virus-like particles (VLPs) of BK …; test: ELISA on coated VLP; supernatant 1/20
Procedure: (§1) To do this, the VLPs produced were deposited at a concentration of 1 μg/mL in PBS and incubated overnight at +4° C. The wells were then blocked for 1 h at +37° C. with a PBS/FCS (phosphate-buffered saline/fetal calf serum) mixture. After dilution in a dilution buffer containing FCS, PBS and Tween® 20, the various hybridoma culture supernatants were added for 1 h at +37° C. The wells were washed four times in a row with Wash Buffer and a secondary anti-mouse antibody coupled to peroxidase was added to the 1:2000 dilution for 1 h at +37° C. The wells were washed four more times and the substrate (OPD (ortho phenylene diamine)+H₂O₂) was added for 30 min at room temperature. A stop solution (H₂SO₄ 4N) was then added and each well was read by measuring the absorbance at 492 nm with a spectrophotometer. The value obtained for the average of the control wells (PBS in the first step) is subtracted from the optical density values obtained for each well.

[2] = molecular target: T2, virus-like particles (VLPs) of BK …; test: ELISA on coated VLP; supernatant 1/20
Procedure: as §1

[3] = molecular target: T3, virus-like particles (VLPs) of BK …; test: ELISA on coated VLP; supernatant 1/20
Procedure: as §1

[4] = molecular target: T1, virus-like particles (VLPs) of BK …; test: ELISA on coated VLP; supernatant 1/1 280
Procedure: as §1

[5] = molecular target: T4, virus-like particles (VLPs) of BK …; test: ELISA on coated VLP; supernatant 1/1 280
Procedure: as §1

[6] = molecular target: T1, virus-like particles (VLPs) of BK …; test: ELISA on coated VLP; supernatant 1/2 560
Procedure: as §1

[7] = molecular target: T2, virus-like particles (VLPs) of BK …; test: ELISA on coated VLP; supernatant 1/2 560
Procedure: as §1

[8] = molecular target: T3, virus-like particles (VLPs) of BK …; test: ELISA on coated VLP; supernatant 1/2 560
Procedure: as §1

[9] = molecular target: T4, virus-like particles (VLPs) of BK …; test: ELISA on coated VLP; supernatant 1/2 560
Procedure: as §1

[10] = molecular target: T1, virus-like particles (VLPs) of BK …; test: ELISA on coated VLP; supernatant 1/20 480
Procedure: as §1

[11] = molecular target: T2, virus-like particles (VLPs) of BK …; test: ELISA on coated VLP; supernatant 1/20 480
Procedure: as §1

[12] = molecular target: T3, virus-like particles (VLPs) of BK …; test: ELISA on coated VLP; supernatant 1/20 480
Procedure: as §1

[13] = molecular target: T4, virus-like particles (VLPs) of BK …; test: ELISA on coated VLP; supernatant 1/20 480
Procedure: as §1

Binder	OD 492 nm [1] [OD]	OD 492 nm [2] [OD]	OD 492 nm [3] [OD]	OD 492 nm [4] [OD]	OD 492 nm [5] [OD]	OD 492 nm [6] [OD]	OD 492 nm [7] [OD]	OD 492 nm [8] [OD]	OD 492 nm [9] [OD]	OD 492 nm [10] [OD]	OD 492 nm [11] [OD]	OD 492 nm [12] [OD]	OD 492 nm [13] [OD]
B1	3.06	0.82	0.86	0.81	0.91	0.46	0.1	0.06	0.54	0.16	0.06	0.06	0.12
B2	3.23	1.22	1.65	2.11	2.04	1.06	0.09	0.07	1.28	0.27	0.11	0.1	0.26
